# ± gives the standard deviation of the averaged measurements.
# B1: library; a variant is named by its letters at N, in order (parent)
# chain: GCUGUCACCGGUGUAUUACCCUAGUGGUCGACCGGUCUGAUGAGUCUNNNNNNAGACGAAACAGC
# Tests used:
# [1] = variants of: B1; assay: FACS-Seq fitted mean relative fluorescence mCherry/BFP without ligand (log10 relative fluorescence); ligand: hypoxanthine (xanthine aptamer); higher = higher reporter protein expression; settings: HEK293T, ligand present: no
# Outline: (§1)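 HEK293T libraries were lentivirally transduced with an mCherry reporter carrying the ribozyme switch and an EF1α-BFP marker, enriched, and incubated for 48 h with or without ligand before sorting into 6 bins by mCherry/BFP. Genomic DNA from each bin was PCR-amplified, barcoded and sequenced on MiSeq. Fluorescence is the fitted normal mean of the bin counts. The fit used log10(mCherry/BFP), and means were scaled to five spiked-in control ribozymes.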
# [2] = variants of: B1; assay: normalized RNA/DNA level with ligand (relative to sTRSVctl = 100) (log10 (% of sTRSVctl)); ligand: hypoxanthine (xanthine aptamer); higher = less ribozyme self-cleavage, higher mRNA level; settings: ligand concentration (+) RNA-Seq: 5 mM, HEK293T, reporter: mCherry (pCS4076), ligand present: yes
# Outline: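 RNA level was computed as RNA reads over DNA reads divided by a spiked-in non-cleaving sequence or by the top sequences, then scaled and log-transformed. Scaling was ×100 with log10, the top group was 25 sequences, and the threshold was ≥100 DNA reads. The reads came from HEK293T cells transfected at 4 µg per 6-well well with ribozyme switch library plasmids (mCherry, or eGFP in some ligand experiments). Total RNA was extracted with EDTA 72 h after transfection, with any ligand added 1 h before it.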
# [3] = variants of: B1; assay: normalized RNA/DNA level without ligand (relative to sTRSVctl = 100) (log10 (% of sTRSVctl)); ligand: hypoxanthine (xanthine aptamer); higher = less ribozyme self-cleavage, higher mRNA level; settings: HEK293T, reporter: mCherry (pCS4076), ligand present: no
# Experimental: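 Hammerhead (sTRSV) ribozyme switch libraries with a ligand aptamer grafted on stem I and a randomized N4-6 loop II, cloned into the 3' UTR of mCherry and transiently transfected into HEK293T cells; RNA-Seq 72 h post transfection with ligand added 1 h before transfection; RNA read count / plasmid DNA read count normalized to the non-cleaving sTRSVctl (x100), log10; sequences with >100 DNA reads. FACS-Seq: lentiviral library sorted into 6 bins after 48 h ligand, log-normal fit mean of mCherry/BFP scaled to controls. Printed sequences are partial switch sequences.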
# [4] = variants of: B1; assay: FACS-Seq fitted mean relative fluorescence mCherry/BFP with ligand (log10 relative fluorescence); ligand: hypoxanthine (xanthine aptamer); ligand concentration (+) FACS-Seq: 5 mM; higher = higher reporter protein expression; settings: HEK293T, ligand present: yes
# Outline: as §1
Variant,FACS-Seq fitted mean (log10) [1],normalized RNA/DNA level with ligand (log10) [2],normalized RNA/DNA level without ligand (log10) [3],FACS-Seq fitted mean (log10) [4]
UCUCUG,0.0437 ± 0.023,1.77 ± 0.022,1.3 ± 0.032,0.522 ± 0.028
UCUCUA,0.399 ± 0.023,1.94 ± 0.058,1.743 ± 0.0054,0.493 ± 0.055
ACUCAU,0.604 ± 0.014,1.95 ± 0.042,1.84 ± 0.026,0.7156 ± 0.0036
GCUAUU,0.263 ± 0.011,1.927 ± 0.011,1.89 ± 0.004,0.412 ± 0.06
GCUAUG,0.086 ± 0.067,1.86 ± 0.025,1.36 ± 0.065,0.318 ± 0.022
UCUCAG,0.173 ± 0.045,1.82 ± 0.061,1.34 ± 0.038,0.474 ± 0.094
CCUGAG,0.635 ± 0.045,1.918 ± 0.014,1.653 ± 0.0099,0.706 ± 0.046
ACUCUA,0.438 ± 0.061,1.947 ± 0.0039,1.86 ± 0.055,0.585 ± 0.062
ACUCUU,0.342 ± 0.07,1.95 ± 0.029,1.84 ± 0.056,0.517 ± 0.056
ACUCUG,0.335 ± 0.0076,1.89 ± 0.054,1.516 ± 0.0021,0.677 ± 0.02
ACUAUA,0.701 ± 0.099,1.89 ± 0.039,1.823 ± 0.017,0.693 ± 0.019
CGAAGA,0.445 ± 0.018,1.97 ± 0.061,1.72 ± 0.049,0.65 ± 0.062
CGAAGG,0.0138 ± 0.042,1.806 ± 0.015,1.4 ± 0.13,0.39 ± 0.041
CGAAUA,0.459 ± 0.085,1.9 ± 0.037,1.677 ± 0.0017,0.656 ± 0.027
GCGGGG,0.17 ± 0.0079,1.96 ± 0.031,1.56 ± 0.026,0.433 ± 0.03
GCGGGU,0.731 ± 0.07,1.97 ± 0.048,1.83 ± 0.016,0.735 ± 0.05
ACUGCG,0.125 ± 0.0038,1.92 ± 0.03,1.458 ± 0.013,0.557 ± 0.019

# Reference: the supplement of paper PMC6757056
